Measured values from paper PMC10350030 (bioRxiv, 2023).

Target: biotin-Aβ42 (UniProt P05067 672-713, biotin (site not stated))
Assay: single-molecule TIRF microscopy

biotin-Aβ42, sequence (P05067 672-713): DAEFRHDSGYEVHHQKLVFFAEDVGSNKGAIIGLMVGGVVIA

B1: Cy3-labeled ceruloplasmin (enzyme, human, UniProt P00450 20-1065, looked up)
chain: KEKHYYIGIIETTWDYASDHGEKKLISVDTEHSNIYLQNGPDRIGRLYKKALYLQYTDETFRTTIEKPVWLGFLGPIIKAETGDKVYVHLKNLASRPYTFHSHGITYYKEHEGAIYPDNTTDFQRADDKVYPGEQYTYMLLATEEQSPGEGDGNCVTRIYHSHIDAPKDIASGLIGPLIICKKDSLDKEKEKHIDREFVVMFSVVDENFSWYLEDNIKTYCSEPEKVDKDNEDFQESNRMYSVNGYTFGSLPGLSMCAEDRVKWYLFGMGNEVDVHAAFFHGQALTNKNYRIDTINLFPATLFDAYMVAQNPGEWMLSCQNLNHLKAGLQAFFQVQECNKSSSKDNIRGKHVRHYYIAAEEIIWNYAPSGIDIFTKENLTAPGSDSAVFFEQGTTRIGGSYKKLVYREYTDASFTNRKERGPEEEHLGILGPVIWAEVGDTIRVTFHNKGAYPLSIEPIGVRFNKNNEGTYYSPNYNPQSRSVPPSASHVAPTETFTYEWTVPKEVGPTNADPVCLAKMYYSAVEPTKDIFTGLIGPMKICKKGSLHANGRQKDVDKEFYLFPTVFDENESLLLEDNIRMFTTAPDQVDKEDEDFQESNKMHSMNGFMYGNQPGLTMCKGDSVVWYLFSAGNEADVHGIYFSGNTYLWRGERRDTANLFPQTSLTLHMWPDTEGTFNVECLTTDHYTGGMKQKYTVNQCRRQSEDSTFYLGERTYYIAAVEVEWDYSPQREWEKELHHLQEQNVSNAFLDKGEFYIGSKYKKVVYRQYTDSTFRVPVERKAEEEHLGILGPQLHADVGDKVKIIFKNMATRPYSIHAHGVQTESSTVTPTLPGETLTYVWKIPERSGAGTEDSACIPWAYYSTVDQVKDLYSGLIGPLIVCRRPYLKVFNPRRKLEFALLFLVFDENESWYLDDNIKTYSDHPEKVNKDDEEFIESNKMHAINGRMFGNLQGLTMHVGDEVNWYLMGMGNEIDLHTVHFHGHSFQYKHRGVYSSDVFDIFPGTYQTLEMFPRTPGIWLLHCHVTDHIHAGMETTYTVLQNEDTKSG
modifications: Cy3 label (site not stated)
half-lifetime of transient binding: ~14.6 s
